The values below come from patent US20250269047A1 (MABWELL SHANGHAI BIOSCIENCE, published 2025).

Sequences and labels used below:
B1: hz17A3-5 (antibody, human IgG1, kappa, V domains shown)
VH: EVQLVQSGAEVKKPGASVKVSCKASGYTFTDYALHWVRQAPGQGLEWMGLINTYSSNTNYNQKFKDRVTMTRDTSISTAYMELSRLRSEDTAVYYCARGITAVVGTRYYAMDYWGQGTLVTVSS
VL: EIVLTQSPGTLSLSPGERATLSCRASQSISNNLHWYQQKPGQAPRLLIKYTSQNISGIPDRFSGSGSGTDFTLTISRLEPEDFAVYYCQQSYSWPLTFGGGTKVEIKR
notes: hz17A3_VH3 + hz17A3_VL3; human IgG1, kappa
B2: hz17A3-1 (antibody, human IgG1, kappa, V domains shown)
VH: QVQLVQSGAEVKKPGASVKVSCKASGYTFTDYALHWVRQAPGQGLEWMGLINTYSSNTNYNQKFKDRVTMTRDTSISTAYMELSRLRSDDTAVYYCARGITAVVGTRYYAMDYWGQGTLVTVSS
VL: EIVLTQSPGTLSLSPGERATLSCRASQSISNNLHWYQQKPGQAPRLLIYYTSQNISGIPDRFSGSGSGTDFTLTISRLEPEDFAVYYCQQSYSWPLTFGGGTKVEIKR
notes: hz17A3_VH1 + hz17A3_VL1; human IgG1, kappa
B3: hz17A3-2 (antibody, human IgG1, kappa, V domains shown)
VH: QVQLVQSGAEVKKPGASVKVSCKASGYTFTDYALHWVRQAPGQGLEWIGLINTYSSNTNYNQKFKDRVTMTRDTSISTAYMELSRLRSDDTAVYYCARGITAVVGTRYYAMDYWGQGTLVTVSS
VL: EIVLTQSPGTLSLSPGERATLSCRASQSISNNLHWYQQKPGQAPRLLIYYTSQNISGIPDRFSGSGSGTDFTLTISRLEPEDFAVYYCQQSYSWPLTFGGGTKVEIKR
notes: hz17A3_VH2 + hz17A3_VL1; human IgG1, kappa
B4: hz10B4-8 (antibody, human IgG1, kappa)
heavy: not shown
light: DIQLTQSPSSLSASVGDRVTMTCSASSSVSYMHWYQQKPGKAPKLLIYDTSKLASGVPSRFSGSGSGTDFTLTISSLQPEDFATYYCQQWSSNPLTFGGGTKVEIKRTVAAPSVFIFPPSDEQLKSGTASVVCLLNNFYPREAKVQWKVDNALQSGNSQESVTEQDSKDSTYSLSSTLTLSKADYEKHKVYACEVTHQGLSSPVTKSFNRGEC
notes: hz10B4_VH4 + hz10B4_VL2; human IgG1, kappa
B5: hz10B4-12 (antibody, human IgG1, kappa, V domains shown)
VH: EVQLVQSGAEVKKPGASVKVSCKASGYTFTEYIMHWVRQAPGQGLEWMGGINPNQGGTTYNQKFKGRVTMTRDTSISTAYMELSRLRSEDTAVYYCARKGKDYFDWYFDVWGQGTTVTVSS
VL: DIQLTQSPSSLSASVGDRVTMTCSASSSVSYMHWYQQKPGKAPKLLIYDTSKLASGVPSRFSGSGSGTDFTLTISSLQPEDFATYYCQQWSSAPLTFGGGTKVEIKR
notes: hz10B4_VH4 + hz10B4_VL3; human IgG1, kappa
B6: hz10B4-6 (antibody, human IgG1, kappa)
heavy: not shown
light: DIQLTQSPSSLSASVGDRVTMTCSASSSVSYMHWYQQKPGKAPKLLIYDTSKLASGVPSRFSGSGSGTDFTLTISSLQPEDFATYYCQQWSSNPLTFGGGTKVEIKRTVAAPSVFIFPPSDEQLKSGTASVVCLLNNFYPREAKVQWKVDNALQSGNSQESVTEQDSKDSTYSLSSTLTLSKADYEKHKVYACEVTHQGLSSPVTKSFNRGEC
notes: hz10B4_VH2 + hz10B4_VL2; human IgG1, kappa
B7: hz10B4-9 (antibody, human IgG1, kappa, V domains shown)
VH: EVQLVQSGAEVKKPGASVKVSCKASGYTFTEYIMHWVRQAPGQGLEWMGGINPASGGTTYNQKFKGRVTMTRDTSISTAYMELSRLRSEDTAVYYCARKGKDYFDWYFDVWGQGTTVTVSS
VL: DIQLTQSPSSLSASVGDRVTMTCSASSSVSYMHWYQQKPGKAPKLLIYDTSKLASGVPSRFSGSGSGTDFTLTISSLQPEDFATYYCQQWSSAPLTFGGGTKVEIKR
notes: hz10B4_VH3 + hz10B4_VL3; human IgG1, kappa
B8: hz10B4-1 (antibody, human IgG1, kappa)
heavy: not shown
light: DIQMTQSPSSLSASVGDRVTMTCSASSSVSYMHWYQQKPGKAPKLLIYDTSKLASGVPSRFSGSGSGTDFTLTISSLQPEDFATYYCQQWSSNPLTFGGGTKVEIKRTVAAPSVFIFPPSDEQLKSGTASVVCLLNNFYPREAKVQWKVDNALQSGNSQESVTEQDSKDSTYSLSSTLTLSKADYEKHKVYACEVTHQGLSSPVTKSFNRGEC
notes: hz10B4_VH1 + hz10B4_VL1; human IgG1, kappa
B9: hz10B4-3 (antibody, human IgG1, kappa)
heavy: not shown
light: DIQMTQSPSSLSASVGDRVTMTCSASSSVSYMHWYQQKPGKAPKLLIYDTSKLASGVPSRFSGSGSGTDFTLTISSLQPEDFATYYCQQWSSNPLTFGGGTKVEIKRTVAAPSVFIFPPSDEQLKSGTASVVCLLNNFYPREAKVQWKVDNALQSGNSQESVTEQDSKDSTYSLSSTLTLSKADYEKHKVYACEVTHQGLSSPVTKSFNRGEC
notes: hz10B4_VH3 + hz10B4_VL1; human IgG1, kappa
B10: hz10B4-13 (antibody, human IgG1, kappa, V domains shown)
VH: EVQLVQSGAEVKKPGASVKVSCKASGYTFTEYIMHWVRQAPGQGLEWMGGINPNQGGTTYNQKFKGRVTMTRDTSISTAYMELSRLRSEDTAVYYCARKGKDYFDWYFDVWGQGTTVTVSS
VL: DIQLTQSPSSLSASVGDRVTMTCSASSSVSYMHWYQQKPGKAPKLLIYDTSKLASGVPSRFSGSGSGTDFTLTISSLQPEDFATYYCQQWSASPLTFGGGTKVEIKR
notes: hz10B4_VH4 + hz10B4_VL4; human IgG1, kappa
B11: hz10B4-14 (antibody, human IgG1, kappa, V domains shown)
VH: EVQLVQSGAEVKKPGASVKVSCKASGYTFTEYIMHWVRQAPGQGLEWMGGINPNQGGTTYNQKFKGRVTMTRDTSISTAYMELSRLRSEDTAVYYCARKGKDYFDWYFDVWGQGTTVTVSS
VL: DIQLTQSPSSLSASVGDRVTMTCSASSSVSYMHWYQQKPGKAPKLLIYDTSKLASGVPSRFSGSGSGTDFTLTISSLQPEDFATYYCQQWSSQPLTFGGGTKVEIKR
notes: hz10B4_VH4 + hz10B4_VL5; human IgG1, kappa
B12: hz10B4-4 (antibody, human IgG1, kappa)
heavy: not shown
light: DIQMTQSPSSLSASVGDRVTMTCSASSSVSYMHWYQQKPGKAPKLLIYDTSKLASGVPSRFSGSGSGTDFTLTISSLQPEDFATYYCQQWSSNPLTFGGGTKVEIKRTVAAPSVFIFPPSDEQLKSGTASVVCLLNNFYPREAKVQWKVDNALQSGNSQESVTEQDSKDSTYSLSSTLTLSKADYEKHKVYACEVTHQGLSSPVTKSFNRGEC
notes: hz10B4_VH4 + hz10B4_VL1; human IgG1, kappa
B13: hz10B4-10 (antibody, human IgG1, kappa, V domains shown)
VH: EVQLVQSGAEVKKPGASVKVSCKASGYTFTEYIMHWVRQAPGQGLEWMGGINPASGGTTYNQKFKGRVTMTRDTSISTAYMELSRLRSEDTAVYYCARKGKDYFDWYFDVWGQGTTVTVSS
VL: DIQLTQSPSSLSASVGDRVTMTCSASSSVSYMHWYQQKPGKAPKLLIYDTSKLASGVPSRFSGSGSGTDFTLTISSLQPEDFATYYCQQWSASPLTFGGGTKVEIKR
notes: hz10B4_VH3 + hz10B4_VL4; human IgG1, kappa
B14: hz10B4-2 (antibody, human IgG1, kappa)
heavy: not shown
light: DIQMTQSPSSLSASVGDRVTMTCSASSSVSYMHWYQQKPGKAPKLLIYDTSKLASGVPSRFSGSGSGTDFTLTISSLQPEDFATYYCQQWSSNPLTFGGGTKVEIKRTVAAPSVFIFPPSDEQLKSGTASVVCLLNNFYPREAKVQWKVDNALQSGNSQESVTEQDSKDSTYSLSSTLTLSKADYEKHKVYACEVTHQGLSSPVTKSFNRGEC
notes: hz10B4_VH2 + hz10B4_VL1; human IgG1, kappa
B15: hz10B4-11 (antibody, human IgG1, kappa, V domains shown)
VH: EVQLVQSGAEVKKPGASVKVSCKASGYTFTEYIMHWVRQAPGQGLEWMGGINPASGGTTYNQKFKGRVTMTRDTSISTAYMELSRLRSEDTAVYYCARKGKDYFDWYFDVWGQGTTVTVSS
VL: DIQLTQSPSSLSASVGDRVTMTCSASSSVSYMHWYQQKPGKAPKLLIYDTSKLASGVPSRFSGSGSGTDFTLTISSLQPEDFATYYCQQWSSQPLTFGGGTKVEIKR
notes: hz10B4_VH3 + hz10B4_VL5; human IgG1, kappa
B16: hz10B4-5 (antibody, human IgG1, kappa)
heavy: not shown
light: DIQLTQSPSSLSASVGDRVTMTCSASSSVSYMHWYQQKPGKAPKLLIYDTSKLASGVPSRFSGSGSGTDFTLTISSLQPEDFATYYCQQWSSNPLTFGGGTKVEIKRTVAAPSVFIFPPSDEQLKSGTASVVCLLNNFYPREAKVQWKVDNALQSGNSQESVTEQDSKDSTYSLSSTLTLSKADYEKHKVYACEVTHQGLSSPVTKSFNRGEC
notes: hz10B4_VH1 + hz10B4_VL2; human IgG1, kappa

For this experiment, the target named is T1, recombinant human B7-H3-his extracellular domain protein (UniProtKB-Q5ZPR3, 1 aa-461 aa) (human, UniProt Q5ZPR3 29-461).
T1 construct: range 1-461; The printed range 1-461 starts at residue 1 and so includes the signal peptide; also called Human B7-H3 ECD; recombinant human B7-H3-his protein; not shown: C-terminal his tag
T1 sequence (looked up): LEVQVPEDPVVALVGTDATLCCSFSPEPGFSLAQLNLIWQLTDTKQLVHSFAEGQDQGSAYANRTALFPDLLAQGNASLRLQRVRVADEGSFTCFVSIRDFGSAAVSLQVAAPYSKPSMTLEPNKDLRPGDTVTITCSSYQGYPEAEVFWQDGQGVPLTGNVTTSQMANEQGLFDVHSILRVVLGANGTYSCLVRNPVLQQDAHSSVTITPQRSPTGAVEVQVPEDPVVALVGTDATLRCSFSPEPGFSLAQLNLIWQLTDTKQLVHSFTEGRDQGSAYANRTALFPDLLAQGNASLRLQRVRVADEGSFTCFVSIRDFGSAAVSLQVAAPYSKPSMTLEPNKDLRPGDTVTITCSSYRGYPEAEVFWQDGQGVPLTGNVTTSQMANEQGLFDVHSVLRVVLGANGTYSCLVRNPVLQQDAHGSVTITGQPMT
Put plainly: BLI (Octet QKe), antibody on AHC biosensor, B7-H3-his 60 nM in solution. As to the method: According to the mutation designs, site-directed mutagenesis was performed in the plasmids expressing the humanized light chains and heavy chains respectively using StarMut gene Site-directed Mutagenesis Kit (Cat.: T111-01, GenStar). The mutated plasmids were transformed into E. coli cells for expansion, and plasmids expressing the humanized and mutated light and heavy chains based on the antibodies 9B11, 10B4, and 17A3 were obtained. […] 5-6 days after cell transfection, culture supernatants were purified through ProA affinity chromatography column to obtain different humanized antibodies. Affinities of the antibodies were determined by an assay including capturing Fc fragments of the antibodies with anti-human IgG Fc capture (AHC) biosensors using Octet QKe system instrument from Fortebio. For the assay, each of the humanized antibodies and the chimeric antibodies based on the antibodies 9B11, 10B4, and 17A3 was diluted to 4 μg/ml in PBS, and was allowed to flow through the surface of an AHC biosensor (Cat.: 18-0015, PALL) for 300 s. Recombinant human B7-H3-his protein (Accession No.: UniProtKB-Q5ZPR3, 1 aa-461 aa) was used as a mobile phase, and its concentration was 60 nM. The association time was 100 s and the dissociation time was 300 s. When the assay was finished, data from which the response values of blank control had been deducted were fitted to a 1:1 Langmuir binding model using software, and then kinetic constants for antigen-antibody binding were calculated. The light and heavy chain combinations and the affinity constant KD values of the humanized and the mutant antibodies based on the antibodies 9B11, 10B4, and 17A3 are shown in Tables 6-8 respectively.
For orientation: Biolayer interferometry detects binding as a change in optical thickness at a sensor tip.
Consider B1, for which the Kd (as a rule, the equilibrium constant for the complex coming apart) was 258 pM. For B2 the value was 541 pM; for B3, 771 pM.

Turning to B4, the Kd was 211 pM. For B5 the value was 332 pM; for B6, 131 pM; for B7, 352 pM. Turning to B8, the Kd was found to be 827 pM. In the case of B9, the Kd was determined as 341 pM. Consider B10, for which the Kd was 351 pM. For B11 the value was 523 pM; for B12, 501 pM; for B13, 381 pM. The value for B14 was 177 pM; that for B15 was 422 pM; that for B16 was 998 pM.
